T1: EBV latent membrane protein LMP2 (wild-type epitope, LSK; as in SEQ ID NO: 27) peptide on HLA-A*11:01 (human)
T1 peptide: SSCSSCPLSK

T2: EBV latent membrane protein LMP2 (mutant-type epitope, LTK; as in SEQ ID NO: 28) peptide on HLA-A*11:01 (human)
T2 peptide: SSCSSCPLTK

B1: E149 (TCR, V domains shown)
Valpha: GIQVEQSPPDLILQEGANSTLRCNFSDSVNNLQWFHQNPWGQLINLFYIPSGTKQNGRLSATTVATERYSLLYISSSQTTDSGVYFCAVVDNNDMRFGAGTRLTVKP
Vbeta: DTEVTQTPKHLVMGMTNKKSLKCEQHMGHRAMYWYKQKAKKPPELMFVYSYEKLSINESVPSRFSPECPNSSLLNLHLHALQPEDSALYLCASSPGRWYEQFFGPGTRLTVL
B2: E316 (TCR, V domains shown)
Valpha: AQKITQTQPGMFVQEKEAVTLDCTYDTSDQSYGLFWYKQPSSGEMIFLIYQGSYDEQNATEGRYSLNFQKARKSANLVISASQLGDSAMYFCAMVSGAGGGADGLTFGKGTHLIIQP
Vbeta: DGGITQSPKYLFRKEGQNVTLSCEQNLNHDAMYWYRQDPGQGLRLIYYSQIVNDFQKGDIAEGYSVSREKKESFPLTVTSAQKNPTAFYLCASSIGVGLSNTEAFFGQGTRLTVV
B3: E315 (TCR, V domains shown)
Valpha: KQEVTQIPAALSVPEGENLVLNCSFTDSAIYNLQWFRQDPGKGLTSLLLIQSSQREQTSGRLNASLDKSSGRSTLYIAASQPGDSATYLCAGKTSYDKVIFGPGTSLSVIP
Vbeta: EAGVAQSPRYKIIEKRQSVAFWCNPISGHATLYWYQQILGQGPKLLIQFQNNGVVDDSQLPKDRFSAERLKGVDSTLKIQPAKLEDSAVYLCASSVFPTSVEQYFGPGTRLTVT
B4: E318 (TCR, V domains shown)
Valpha: GENVEQHPSTLSVQEGDSAVIKCTYSDSASNYFPWYKQELGKRPQLIIDIRSNVGEKKDQRIAVTLNKTAKHFSLHITETQPEDSAVYFCAASNRDDKIIFGKGTRLHILP
Vbeta: DAGVIQSPRHEVTEMGQEVTLRCKPISGHNSLFWYRQTMMRGLELLIYFNNNVPIDDSGMPEDRFSAKMPNASFSTLKIQPSEPRDSAVYFCASSLGAGHLWGYTFGSGTRLTVV

Target: T1, EBV latent membrane protein LMP2 …
Test: multimer staining

Binder	binding result
B1	recognises
B2	recognises
B3	recognises
B4	recognises

Target: T2, EBV latent membrane protein LMP2 …
Test: multimer staining

Binder	binding result
B1	recognises
B2	recognises
B3	recognises
B4	recognises
